Measurements taken from patent US20260174880.

Molecular target: cytosolically localized BRD4 (lacks NLS), O60885

B1: BTK-FLAG (Bruton's Tyrosine Kinase, FLAG-tagged, expressed in HEK293T cells and treated with BTK-BRD4 PHICS) (protein)
chain: MAAVILESIFLKRSQQKKKTSPLNFKKRLFLLTVHKLSYYEYDFERGRRGSKKGSIDVEKITCVETVVPEKNPPPERQIPRRGEESSEMEQISIIERFPYPFQVVYDEGPLYVFSPTEELRKRWIHQLKNVIRYNSDLVQKYHPCFWIDGQYLCCSQTAKNAMGCQILENRNGSLKPGSSHRKTKKPLPPTPEEDQILKKPLPPEPAAAPVSTSELKKVVALYDYMPMNANDLQLRKGDEYFILEESNLPWWRARDKNGQEGYIPSNYVTEAEDSIEMYEWYSKHMTRSQAEQLLKQEGKEGGFIVRDSSKAGKYTVSVFAKSTGDPQGVIRHYVVCSTPQSQYYLAEKHLFSTIPELINYHQHNSAGLISRLKYPVSQQNKNAPSTAGLGYGSWEIDPKDLTFLKELGTGQFGVVKYGKWRGQYDVAIKMIKEGSMSEDEFIEEAKVMMNLSHEKLVQLYGVCTKQRPIFIITEYMANGCLLNYLREMRHRFQTQQLLEMCKDVCEAMEYLESKQFLHRDLAARNCLVNDQGVVKVSDFGLSRYVLDDEYTSSVGSKFPVRWSPPEVLMYSKFSSKSDIWAFGVLMWEIYSLGKMPYERFTNSETAEHIAQGLRLYRPHLASEKVYTIMYSCWHEKADERPTFKILLSNILDVMDEES
  BRD4 phosphorylation (pBRD4 immunoblot) [panel B]: clear pBRD4 band in lane PHICS; no visible band in lanes DMSO and iPHICS; total BRD4 alike in all lanes
  BRD4 phosphorylation (pBRD4 immunoblot) [panel C]: strongest pBRD4 band in lane PHICS; weak bands in lanes DMSO and iPHICS; total BRD4 alike in all lanes
  BRD4 phosphorylation (pBRD4 immunoblot) [panel F]: clear pBRD4 band in lane 5; barely visible signal in lanes DMSO and 6; total BRD4 alike in all lanes
  BRD4 phosphorylation (pBRD4 immunoblot) [panel G]: clear pBRD4 band in lane 7; no visible band in lanes DMSO and 8; total BRD4 alike in all lanes
